The text below walks through data of paper PMC10786891, “Massively parallel profiling of RNA-targeting CRISPR-Cas13d”.

T1: EsCas13d, nuclease-dead (Eubacterium siraeum, UniProt B0MS50, R295A;H300A;R849A;H854A)
T1 sequence: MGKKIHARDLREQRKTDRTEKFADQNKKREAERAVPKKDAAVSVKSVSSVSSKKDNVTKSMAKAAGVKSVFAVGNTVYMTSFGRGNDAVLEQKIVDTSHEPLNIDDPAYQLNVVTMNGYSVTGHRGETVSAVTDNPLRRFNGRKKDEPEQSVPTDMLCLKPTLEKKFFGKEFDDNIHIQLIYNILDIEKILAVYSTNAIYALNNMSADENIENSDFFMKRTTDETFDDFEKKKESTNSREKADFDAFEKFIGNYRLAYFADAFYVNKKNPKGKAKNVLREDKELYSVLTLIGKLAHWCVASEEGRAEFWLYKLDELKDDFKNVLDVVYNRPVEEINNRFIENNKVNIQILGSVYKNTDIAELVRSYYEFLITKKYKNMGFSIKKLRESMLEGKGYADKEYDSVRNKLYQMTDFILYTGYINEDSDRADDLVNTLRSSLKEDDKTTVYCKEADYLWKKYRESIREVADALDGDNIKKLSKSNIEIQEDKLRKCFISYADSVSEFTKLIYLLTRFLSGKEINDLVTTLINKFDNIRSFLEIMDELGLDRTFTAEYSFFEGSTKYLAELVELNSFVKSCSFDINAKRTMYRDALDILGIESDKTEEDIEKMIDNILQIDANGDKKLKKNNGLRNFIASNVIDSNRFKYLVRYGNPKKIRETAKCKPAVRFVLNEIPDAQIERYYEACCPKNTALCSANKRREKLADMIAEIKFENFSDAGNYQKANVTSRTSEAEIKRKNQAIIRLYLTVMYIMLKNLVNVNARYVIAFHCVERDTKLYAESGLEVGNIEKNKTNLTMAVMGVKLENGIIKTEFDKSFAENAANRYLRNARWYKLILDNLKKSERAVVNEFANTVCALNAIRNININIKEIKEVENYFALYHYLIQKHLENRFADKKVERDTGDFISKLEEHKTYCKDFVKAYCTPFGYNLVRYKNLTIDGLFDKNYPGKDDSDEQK

B1: target 3 U2G,G4A (mixed)
RNA 1: CACCCGUGCAAAAUUGCAGGGGUCUAAAACGACCUGAAUAUUUCAGAUCAAA
RNA 2: GGGAAUGGAUCCACAUCUACGAAUUCGUUUUUGAUCUGAAAUAUUCAAGGCUGCAGAUCGGAAGAGCACACGU
B2: target 3 insA 3' of 7,insG 3' of 7 (mixed)
RNA 1: CACCCGUGCAAAAUUGCAGGGGUCUAAAACGACCUGAAUAUUUCAGAUCAAA
RNA 2: GGGAAUGGAUCCACAUCUACGAAUUCGUUUUUGAUCUGAAAUAUUAGCAGGUCUGCAGAUCGGAAGAGCACACGU
B3: target 3 U2A,U7C (mixed)
RNA 1: CACCCGUGCAAAAUUGCAGGGGUCUAAAACGACCUGAAUAUUUCAGAUCAAA
RNA 2: GGGAAUGGAUCCACAUCUACGAAUUCGUUUUUGAUCUGAAAUAUCCAGGACUGCAGAUCGGAAGAGCACACGU
B4: target 3 insA 3' of 14,insG 3' of 5 (mixed)
RNA 1: CACCCGUGCAAAAUUGCAGGGGUCUAAAACGACCUGAAUAUUUCAGAUCAAA
RNA 2: GGGAAUGGAUCCACAUCUACGAAUUCGUUUUUGAUCUGAAAAUAUUCAGGGUCUGCAGAUCGGAAGAGCACACGU
B5: target 3 insC 3' of 8,insG 3' of 6 (mixed)
RNA 1: CACCCGUGCAAAAUUGCAGGGGUCUAAAACGACCUGAAUAUUUCAGAUCAAA
RNA 2: GGGAAUGGAUCCACAUCUACGAAUUCGUUUUUGAUCUGAAAUAUCUCGAGGUCUGCAGAUCGGAAGAGCACACGU
B6: target 3 insU 3' of 4,insU 3' of 1 (mixed)
RNA 1: CACCCGUGCAAAAUUGCAGGGGUCUAAAACGACCUGAAUAUUUCAGAUCAAA
RNA 2: GGGAAUGGAUCCACAUCUACGAAUUCGUUUUUGAUCUGAAAUAUUCAGUGUCUUGCAGAUCGGAAGAGCACACGU
B7: target 3 insU 3' of 9,insA 3' of 6 (mixed)
RNA 1: CACCCGUGCAAAAUUGCAGGGGUCUAAAACGACCUGAAUAUUUCAGAUCAAA
RNA 2: GGGAAUGGAUCCACAUCUACGAAUUCGUUUUUGAUCUGAAAUAUUUCAAGGUCUGCAGAUCGGAAGAGCACACGU
B8: target 3 A5C,U22A (mixed)
RNA 1: CACCCGUGCAAAAUUGCAGGGGUCUAAAACGACCUGAAUAUUUCAGAUCAAA
RNA 2: GGGAAUGGAUCCACAUCUACGAAUUCGUUAUUGAUCUGAAAUAUUCCGGUCUGCAGAUCGGAAGAGCACACGU
B9: target 3 C1U,U2C (mixed)
RNA 1: CACCCGUGCAAAAUUGCAGGGGUCUAAAACGACCUGAAUAUUUCAGAUCAAA
RNA 2: GGGAAUGGAUCCACAUCUACGAAUUCGUUUUUGAUCUGAAAUAUUCAGGCUUGCAGAUCGGAAGAGCACACGU
B10: target 3 C6U,A12C (mixed)
RNA 1: CACCCGUGCAAAAUUGCAGGGGUCUAAAACGACCUGAAUAUUUCAGAUCAAA
RNA 2: GGGAAUGGAUCCACAUCUACGAAUUCGUUUUUGAUCUGACAUAUUUAGGUCUGCAGAUCGGAAGAGCACACGU
B11: target 3 insC 3' of 22,insA 3' of 3 (mixed)
RNA 1: CACCCGUGCAAAAUUGCAGGGGUCUAAAACGACCUGAAUAUUUCAGAUCAAA
RNA 2: GGGAAUGGAUCCACAUCUACGAAUUCGUUUCUUGAUCUGAAAUAUUCAGGAUCUGCAGAUCGGAAGAGCACACGU
B12: target 3 insA 3' of 7 (mixed)
RNA 1: CACCCGUGCAAAAUUGCAGGGGUCUAAAACGACCUGAAUAUUUCAGAUCAAA
RNA 2: GGGAAUGGAUCCACAUCUACGAAUUCGUUUUUGAUCUGAAAUAUUACAGGUCUGCAGAUCGGAAGAGCACACGU
B13: target 3 G3C,U7A (mixed)
RNA 1: CACCCGUGCAAAAUUGCAGGGGUCUAAAACGACCUGAAUAUUUCAGAUCAAA
RNA 2: GGGAAUGGAUCCACAUCUACGAAUUCGUUUUUGAUCUGAAAUAUACAGCUCUGCAGAUCGGAAGAGCACACGU
B14: target 3 insU 3' of 22,insG 3' of 1 (mixed)
RNA 1: CACCCGUGCAAAAUUGCAGGGGUCUAAAACGACCUGAAUAUUUCAGAUCAAA
RNA 2: GGGAAUGGAUCCACAUCUACGAAUUCGUUUUUUGAUCUGAAAUAUUCAGGUCGUGCAGAUCGGAAGAGCACACGU
B15: target 3 C1G,G3C (mixed)
RNA 1: CACCCGUGCAAAAUUGCAGGGGUCUAAAACGACCUGAAUAUUUCAGAUCAAA
RNA 2: GGGAAUGGAUCCACAUCUACGAAUUCGUUUUUGAUCUGAAAUAUUCAGCUGUGCAGAUCGGAAGAGCACACGU
B16: target 3 G3U,U7C (mixed)
RNA 1: CACCCGUGCAAAAUUGCAGGGGUCUAAAACGACCUGAAUAUUUCAGAUCAAA
RNA 2: GGGAAUGGAUCCACAUCUACGAAUUCGUUUUUGAUCUGAAAUAUCCAGUUCUGCAGAUCGGAAGAGCACACGU
B17: target 3 U2A,U22G (mixed)
RNA 1: CACCCGUGCAAAAUUGCAGGGGUCUAAAACGACCUGAAUAUUUCAGAUCAAA
RNA 2: GGGAAUGGAUCCACAUCUACGAAUUCGUUGUUGAUCUGAAAUAUUCAGGACUGCAGAUCGGAAGAGCACACGU
B18: target 3 insC 3' of 9,insU 3' of 3 (mixed)
RNA 1: CACCCGUGCAAAAUUGCAGGGGUCUAAAACGACCUGAAUAUUUCAGAUCAAA
RNA 2: GGGAAUGGAUCCACAUCUACGAAUUCGUUUUUGAUCUGAAAUACUUCAGGUUCUGCAGAUCGGAAGAGCACACGU
B19: target 3 G3C (mixed)
RNA 1: CACCCGUGCAAAAUUGCAGGGGUCUAAAACGACCUGAAUAUUUCAGAUCAAA
RNA 2: GGGAAUGGAUCCACAUCUACGAAUUCGUUUUUGAUCUGAAAUAUUCAGCUCUGCAGAUCGGAAGAGCACACGU
B20: target 3 G3A,A5G (mixed)
RNA 1: CACCCGUGCAAAAUUGCAGGGGUCUAAAACGACCUGAAUAUUUCAGAUCAAA
RNA 2: GGGAAUGGAUCCACAUCUACGAAUUCGUUUUUGAUCUGAAAUAUUCGGAUCUGCAGAUCGGAAGAGCACACGU
B21: target 3 U2C,G14A (mixed)
RNA 1: CACCCGUGCAAAAUUGCAGGGGUCUAAAACGACCUGAAUAUUUCAGAUCAAA
RNA 2: GGGAAUGGAUCCACAUCUACGAAUUCGUUUUUGAUCUAAAAUAUUCAGGCCUGCAGAUCGGAAGAGCACACGU
B22: target 3 C1G,C6U (mixed)
RNA 1: CACCCGUGCAAAAUUGCAGGGGUCUAAAACGACCUGAAUAUUUCAGAUCAAA
RNA 2: GGGAAUGGAUCCACAUCUACGAAUUCGUUUUUGAUCUGAAAUAUUUAGGUGUGCAGAUCGGAAGAGCACACGU
B23: target 3 C1A,G3C (mixed)
RNA 1: CACCCGUGCAAAAUUGCAGGGGUCUAAAACGACCUGAAUAUUUCAGAUCAAA
RNA 2: GGGAAUGGAUCCACAUCUACGAAUUCGUUUUUGAUCUGAAAUAUUCAGCUAUGCAGAUCGGAAGAGCACACGU
B24: target 3 insA 3' of 22,insU 3' of 11 (mixed)
RNA 1: CACCCGUGCAAAAUUGCAGGGGUCUAAAACGACCUGAAUAUUUCAGAUCAAA
RNA 2: GGGAAUGGAUCCACAUCUACGAAUUCGUUUAUUGAUCUGAAAUUAUUCAGGUCUGCAGAUCGGAAGAGCACACGU
B25: target 1 insG 3' of 21,insA 3' of 3 (mixed)
RNA 1: CACCCGUGCAAAAAUGCAGGGGUCUAAAACUGAGCGGAUAACCUCUCUAUGG
RNA 2: GGGAAUGGAUCCACAUCUACGAAUUCGUACCGAUAGAGAGGUUAUCCGCUACACCGAGAUCGGAAGAGCACACGU
B26: target 1 G5C,G15U (mixed)
RNA 1: CACCCGUGCAAAAAUGCAGGGGUCUAAAACUGAGCGGAUAACCUCUCUAUGG
RNA 2: GGGAAUGGAUCCACAUCUACGAAUUCGUACCAUAGAUAGGUUAUCCCCUCACCGAGAUCGGAAGAGCACACGU
B27: target 1 C6A,U11G (mixed)
RNA 1: CACCCGUGCAAAAAUGCAGGGGUCUAAAACUGAGCGGAUAACCUCUCUAUGG
RNA 2: GGGAAUGGAUCCACAUCUACGAAUUCGUACCAUAGAGAGGGUAUCAGCUCACCGAGAUCGGAAGAGCACACGU

This data set has as its target T1, EsCas13d, nuclease-dead. Description: crRNA (strand 1, pre-loaded); Mg2+; 40 mM Tris-HCl pH 7.5, 150 mM NaCl, 6 mM MgCl2, 1 mM DTT, 0.1% Tween-20, 0.2 mg/ml BSA; 25 C; 10 min per concentration, then washed. The settings on record: tags: His6-TwinStrep-SUMO cleaved; N-terminal SNAP kept (SNAP-Surface 488); label: 3' end held by stalled T7 RNA polymerase.
With B1, binding was characterised by a dissociation constant (Kd) of 2.01 ± 0.17 nM.

Turning to B2, the equilibrium dissociation constant (Kd) (in general, the equilibrium constant for the complex coming apart) came out at 30.4 ± 3.7 nM.

In the case of B3, the Kd was 38 ± 13 nM.

For the molecule B4, the Kd came to 105 ± 31 nM.

B5 yielded a Kd of 79.5 ± 20.5 nM.

B6: the affinity, expressed as Kd, was 37 ± 7 nM.

Molecule B7 showed a Kd of 85 ± 40 nM.

Molecule B8 returned a dissociation constant (Kd) of 60.5 ± 10.5 nM.

In turn, B9 came in with a Kd of 54 ± 18.5 nM.

Molecule B10 displayed a Kd of 72 ± 12.5 nM.

With B11, binding was characterised by a dissociation constant (Kd) of 65.5 ± 14 nM.

Regarding B12, the Kd was 44 ± 8.5 nM.

As for B13, the dissociation constant (Kd) turned out to be 32.9 ± 3.6 nM.

Regarding B14, the Kd turned out to be 32.5 ± 5.5 nM.

B15 had a Kd of 26.5 ± 5 nM.

Regarding B16, the affinity, expressed as Kd, was 86 ± 36 nM.

Regarding B17, the dissociation constant Kd was 65.5 ± 11.5 nM.

The molecule B18 came in with a dissociation constant Kd of 114 ± 29 nM.

Take B19: the Kd was found to be 19.9 ± 1.35 nM.

B20 came in with a Kd of 42.5 ± 6 nM.

B21: the Kd is approximately 64.5 nM.

B22 displayed a dissociation constant (Kd) of 22.1 ± 2.55 nM.

Molecule B23 had a Kd of 65.5 ± 29.5 nM.

As for B24, the Kd stood at 72.5 ± 15.5 nM.

In the case of B25, the affinity, expressed as Kd, was 54 ± 12 nM.

For B26, binding was characterised by a dissociation constant (Kd) of 28.6 ± 2.4 nM.

The molecule B27 showed a Kd of 10.8 ± 0.4 nM.
